Our source for the Relative binding to cynomolgous IL-17A in % and Relative binding to human IL-17A in % values is WO2014161570A1.

Where two headings read alike, the source gives them in different places.

What all share (assay): ELISA, IL-17A coated on plate, relative binding (Table 6a)
In assay [1] the target is Cynomolgous IL-17A (cynomolgous).
Assay [2] deals with T1, Human IL-17A (human) (UniProt Q16552).
T1 sequence: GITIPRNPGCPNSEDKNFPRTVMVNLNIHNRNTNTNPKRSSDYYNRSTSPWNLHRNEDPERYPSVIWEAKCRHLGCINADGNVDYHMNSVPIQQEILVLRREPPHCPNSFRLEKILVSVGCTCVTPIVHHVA

Assay [3] addresses T1, Human IL-17A (human). This is another data set of the same source.

The molecule eBio64CAP17 (antibody) came in with a Relative binding to cynomolgous IL-17A in % in assay [1] of 124%. In the assay with Human IL-17A (human) [2], the Relative binding to human IL-17A in % stood at 122%.

B1: <IL17> 9C6-2B6 (mouse clone) (antibody, V domains shown)
VH: QVQLKESGPGLVAPSQSLSITCTVSGFSLDSYGVHWVRQPPGKGLEWLVVIWSDGTTTYNSALKSRLSITKDNSKSQVFLKMNSLQTDDTAIYYCARDTHYRLYYYAMDYWGQGTSVTVSS
VL: DVVMTQTPLSLPVSLGDQASISCRSSQSLVHSNGDTYFHWYLQKPGQSPKLLIYKVSNRFSGVPDRFSGSGSGTDFTLKINRVEAEDLGVYFCSQTTHAPFTFGSGTKLEIK
In the assay with Human IL-17A (human) [3], B1 returned a Relative binding to human IL-17A in % of 127%.
